Measured values taken from PMC12416549 (2024).
Changes are numbered by the printed parent chain. Numbers in names are those of the source. One block for each binder: values may come before it.

Biological target: T1, TNFR1 (Homo sapiens, UniProt P19438)
T1 chain: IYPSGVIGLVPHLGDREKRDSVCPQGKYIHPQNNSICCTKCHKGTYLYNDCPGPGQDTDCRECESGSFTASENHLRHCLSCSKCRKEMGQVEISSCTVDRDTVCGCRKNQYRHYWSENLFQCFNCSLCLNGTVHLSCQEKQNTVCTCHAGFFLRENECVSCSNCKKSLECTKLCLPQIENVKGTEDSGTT
Test: yeast display SC50

apparent Kd (screen): 0.593 nM
B1: E104F (designed binder)
chain: SMEEEVEKAAKEYEKKKKEAIEKHLEKLKAKDKEAAERFLKELEEAAKEYAKDEAKTMSEEEAKRRAKKYKEKVLLSELSEEEQKEIKEAEEKLVRTILKYVEFAAK

apparent Kd (screen): 1.4 nM
B2: F39Y (designed binder)
chain: B1 chain with F39Y, F104E

apparent Kd (screen): 0.593 nM
B5: K27Y (designed binder)
chain: B1 chain with K27Y, F104E

apparent Kd (screen): 0.539 nM
B7: A35I (designed binder)
chain: B1 chain with A35I, F104E

apparent Kd (screen): 1.16 nM
B9: A46H (designed binder)
chain: B1 chain with A46H, F104E

apparent Kd (screen): 0.653 nM
B11: E86C (designed binder)
chain: B1 chain with E86C, F104E

apparent Kd (screen): 1.05 nM
B12: A55R (designed binder)
chain: B1 chain with A55R, F104E

apparent Kd (screen): 4.83 nM
B14: F39P (designed binder)
chain: B1 chain with F39P, F104E

apparent Kd (screen): 0.79 nM
B16: K93G (designed binder)
chain: B1 chain with K93G, F104E

apparent Kd (screen): 1.27 nM
B21: K69R (designed binder)
chain: B1 chain with K69R, F104E

apparent Kd (screen): 0.718 nM
B22: L75S (designed binder)
chain: B1 chain with L75S, F104E

apparent Kd (screen): 0.446 nM
B23: L94Y (designed binder)
chain: B1 chain with L94Y, F104E

apparent Kd (screen): 0.593 nM
B24: A47F (designed binder)
chain: B1 chain with A47F, F104E

apparent Kd (screen): 0.446 nM
B25: S59P (designed binder)
chain: B1 chain with S59P, F104E

apparent Kd (screen): 7.07 nM
B26: A67I (designed binder)
chain: B1 chain with A67I, F104E

apparent Kd (screen): 0.49 nM
B27: E12L (designed binder)
chain: B1 chain with E12L, F104E

apparent Kd (screen): 0.593 nM
B31: K8G (designed binder)
chain: B1 chain with K8G, F104E

apparent Kd (screen): 0.446 nM
B32: A20Y (designed binder)
chain: B1 chain with A20Y, F104E

apparent Kd (screen): 0.869 nM
B33: K33W (designed binder)
chain: B1 chain with K33W, F104E

apparent Kd (screen): 0.956 nM
B34: E44M (designed binder)
chain: B1 chain with E44M, F104E

apparent Kd (screen): 11.4 nM
B35: V6E (designed binder)
chain: B1 chain with V6E, F104E

apparent Kd (screen): 0.956 nM
B36: K31D (designed binder)
chain: B1 chain with K31D, F104E

apparent Kd (screen): 2.73 nM
B37: K17N (designed binder)
chain: B1 chain with K17N, F104E

apparent Kd (screen): 1.16 nM
B39: K93V (designed binder)
chain: B1 chain with K93V, F104E

apparent Kd (screen): 0.446 nM
B45: K71V (designed binder)
chain: B1 chain with K71V, F104E

apparent Kd (screen): 0.718 nM
B46: E104N (designed binder)
chain: B1 chain with F104N

apparent Kd (screen): 0.49 nM
B47: E37W (designed binder)
chain: B1 chain with E37W, F104E

apparent Kd (screen): 2.05 nM
B48: R96W (designed binder)
chain: B1 chain with R96W, F104E

apparent Kd (screen): 7.07 nM
B49: Y13K (designed binder)
chain: B1 chain with Y13K, F104E

apparent Kd (screen): 0.49 nM
B50: E19G (designed binder)
chain: B1 chain with E19G, F104E

apparent Kd (screen): 0.593 nM
B52: A67P (designed binder)
chain: B1 chain with A67P, F104E

apparent Kd (screen): 4.39 nM
B53: V74C (designed binder)
chain: B1 chain with V74C, F104E

apparent Kd (screen): 0.653 nM
B56: V6R (designed binder)
chain: B1 chain with V6R, F104E

Continued, binder first:

B3: L25Q (designed binder)
chain: B1 chain with L25Q, F104E
apparent Kd (screen): 1.54 nM

B4: E26T (designed binder)
chain: B1 chain with E26T, F104E
apparent Kd (screen): 0.593 nM

B6: L76C (designed binder)
chain: B1 chain with L76C, F104E
apparent Kd (screen): 3 nM

B8: S77M (designed binder)
chain: B1 chain with S77M, F104E
apparent Kd (screen): 1.4 nM

B10: T97I (designed binder)
chain: B1 chain with T97I, F104E
apparent Kd (screen): 2.05 nM

B13: A55S (designed binder)
chain: B1 chain with A55S, F104E
apparent Kd (screen): 1.69 nM

B15: K85C (designed binder)
chain: B1 chain with K85C, F104E
apparent Kd (screen): 0.539 nM

B17: L79Q (designed binder)
chain: B1 chain with L79Q, F104E
apparent Kd (screen): 2.48 nM

B18: E78Y (designed binder)
chain: B1 chain with E78Y, F104E
apparent Kd (screen): 0.446 nM

B19: E83D (designed binder)
chain: B1 chain with E83D, F104E
apparent Kd (screen): 1.16 nM

B20: Q84I (designed binder)
chain: B1 chain with Q84I, F104E
apparent Kd (screen): 2.73 nM

B28: R66N (designed binder)
chain: B1 chain with R66N, F104E
apparent Kd (screen): 16.7 nM

B29: K11L (designed binder)
chain: B1 chain with K11L, F104E
apparent Kd (screen): 0.49 nM

B30: Y13R (designed binder)
chain: B1 chain with Y13R, F104E
apparent Kd (screen): 12.5 nM

B38: R96L (designed binder)
chain: B1 chain with R96L, F104E
apparent Kd (screen): 0.718 nM

B40: E86H (designed binder)
chain: B1 chain with E86H, F104E
apparent Kd (screen): 1.69 nM

B41: E26M (designed binder)
chain: B1 chain with E26M, F104E
apparent Kd (screen): 0.539 nM

B42: F39R (designed binder)
chain: B1 chain with F39R, F104E
apparent Kd (screen): 5.84 nM

B43: E37Y (designed binder)
chain: B1 chain with E37Y, F104E
apparent Kd (screen): 0.49 nM

B44: E26W (designed binder)
chain: B1 chain with E26W, F104E
apparent Kd (screen): 1.05 nM

B51: E12F (designed binder)
chain: B1 chain with E12F, F104E
apparent Kd (screen): 0.539 nM

B54: L75G (designed binder)
chain: B1 chain with L75G, F104E
apparent Kd (screen): 0.368 nM

B55: L43E (designed binder)
chain: B1 chain with L43E, F104E
apparent Kd (screen): 16.7 nM

B57: K29Q (designed binder)
chain: B1 chain with K29Q, F104E
apparent Kd (screen): 0.593 nM

B58: T57H (designed binder)
chain: B1 chain with T57H, F104E
apparent Kd (screen): 0.277 nM

B59: E72A (designed binder)
chain: B1 chain with E72A, F104E
apparent Kd (screen): 2.73 nM
